Results as given in patent US20110098227.

Tested on: NusA-Notch fusion protein (NusA fused to mouse Notch-1 N1703-D1860 with C-terminal Flag and 8His tags), uncleaved

solubilized gamma-secretase from HeLa cells
apparent Km for hydrolysis (Notch cleavage ELISA): about 0.7 µM
specific cleavage at the 1743-1744 junction: γ-secretase activity from HeLa cells specifically cleaves the Notch protein at the 1743-1744 junction
